# Measured values as given in patent publication US20240400659A1 (BIOATLA, published 2024).
# B1: Anti-ApoE wildtype antibody BAP191.01-WT (antibody, V domains shown)
# VH: QIQLVQSGPELKKPGETVKISCKASGYTFTTAGMQWVQKMPGKGFKWIGWINTHSGEPKYAEDFKGRFAFSLETSASTAYLQISNLKNEDTATYFCARMGGYAMDYWGQGTSVTVSS
# VL: DIKLTQSPSSMYASLGERVTITCKASEDINSYLSWFQQKPGKSPKTLIYRANRLVDGVPSRFSGSGSGQDYSLTISSLEYEDMGIYYCLQYDEFPLTFGAGTKLELT
# notes: also called benchmark; parent
# B2: BAP191-01-CPE-HC-M034D (antibody, V domains shown)
# VH: QIQLVQSGPELKKPGETVKISCKASGYTFTTAGDQWVQKMPGKGFKWIGWINTHSGEPKYAEDFKGRFAFSLETSASTAYLQISNLKNEDTATYFCARMGGYAMDYWGQGTSVTVSS
# VL: DIKLTQSPSSMYASLGERVTITCKASEDINSYLSWFQQKPGKSPKTLIYRANRLVDGVPSRFSGSGSGQDYSLTISSLEYEDMGIYYCLQYDEFPLTFGAGTKLELT
# B3: BAP191.01-CPE-HC-M099E (antibody, V domains shown)
# VH: QIQLVQSGPELKKPGETVKISCKASGYTFTTAGMQWVQKMPGKGFKWIGWINTHSGEPKYAEDFKGRFAFSLETSASTAYLQISNLKNEDTATYFCAREGGYAMDYWGQGTSVTVSS
# VL: DIKLTQSPSSMYASLGERVTITCKASEDINSYLSWFQQKPGKSPKTLIYRANRLVDGVPSRFSGSGSGQDYSLTISSLEYEDMGIYYCLQYDEFPLTFGAGTKLELT
# B4: BAP191.01-CPE-HC-M104E (antibody, V domains shown)
# VH: QIQLVQSGPELKKPGETVKISCKASGYTFTTAGMQWVQKMPGKGFKWIGWINTHSGEPKYAEDFKGRFAFSLETSASTAYLQISNLKNEDTATYFCARMGGYAEDYWGQGTSVTVSS
# VL: DIKLTQSPSSMYASLGERVTITCKASEDINSYLSWFQQKPGKSPKTLIYRANRLVDGVPSRFSGSGSGQDYSLTISSLEYEDMGIYYCLQYDEFPLTFGAGTKLELT
# B5: BAP191.01-CPE-LC-Y091D (antibody, V domains shown)
# VH: QIQLVQSGPELKKPGETVKISCKASGYTFTTAGMQWVQKMPGKGFKWIGWINTHSGEPKYAEDFKGRFAFSLETSASTAYLQISNLKNEDTATYFCARMGGYAMDYWGQGTSVTVSS
# VL: DIKLTQSPSSMYASLGERVTITCKASEDINSYLSWFQQKPGKSPKTLIYRANRLVDGVPSRFSGSGSGQDYSLTISSLEYEDMGIYYCLQDDEFPLTFGAGTKLELT
# B6: BAP191.01-CPE-HC-I051D (antibody, V domains shown)
# VH: QIQLVQSGPELKKPGETVKISCKASGYTFTTAGMQWVQKMPGKGFKWIGWDNTHSGEPKYAEDFKGRFAFSLETSASTAYLQISNLKNEDTATYFCARMGGYAMDYWGQGTSVTVSS
# VL: DIKLTQSPSSMYASLGERVTITCKASEDINSYLSWFQQKPGKSPKTLIYRANRLVDGVPSRFSGSGSGQDYSLTISSLEYEDMGIYYCLQYDEFPLTFGAGTKLELT
# notes: also called BAP191.01-CPE-HC-1051D
# B7: BAP191.01-CPE-HC-R098E (antibody, V domains shown)
# VH: QIQLVQSGPELKKPGETVKISCKASGYTFTTAGMQWVQKMPGKGFKWIGWINTHSGEPKYAEDFKGRFAFSLETSASTAYLQISNLKNEDTATYFCAEMGGYAMDYWGQGTSVTVSS
# VL: DIKLTQSPSSMYASLGERVTITCKASEDINSYLSWFQQKPGKSPKTLIYRANRLVDGVPSRFSGSGSGQDYSLTISSLEYEDMGIYYCLQYDEFPLTFGAGTKLELT
# B8: BAP191.01-CPE-LC-P095D (antibody, V domains shown)
# VH: QIQLVQSGPELKKPGETVKISCKASGYTFTTAGMQWVQKMPGKGFKWIGWINTHSGEPKYAEDFKGRFAFSLETSASTAYLQISNLKNEDTATYFCARMGGYAMDYWGQGTSVTVSS
# VL: DIKLTQSPSSMYASLGERVTITCKASEDINSYLSWFQQKPGKSPKTLIYRANRLVDGVPSRFSGSGSGQDYSLTISSLEYEDMGIYYCLQYDEFDLTFGAGTKLELT
# Assays:
# Apolipoprotein E3 [1] = target: T1, Apolipoprotein E3 (human, UniProt P02649 19-317); assay: pH affinity ELISA, coated hApoE3, pH 6.0
# T1 construct: also called ApoE3; hApoE3
# Apolipoprotein E3 [2] = target: T1, Apolipoprotein E3; assay: pH affinity ELISA, coated hApoE3, pH 7.4
# Apolipoprotein E4 [3] = target: T2, Apolipoprotein E4 (human, UniProt P02649 19-317); assay: pH affinity ELISA, coated hApoE4, pH 6.0
# T2 construct: also called ApoE4; hApoE4
# mouse ApoE [4] = target: T3, mouse ApoE (mouse, UniProt P08226 19-311, limits assumed); assay: pH affinity ELISA, coated mouse ApoE, pH 7.4
# T3 construct: also called msApoE; ms ApoE
# T3 sequence (looked up): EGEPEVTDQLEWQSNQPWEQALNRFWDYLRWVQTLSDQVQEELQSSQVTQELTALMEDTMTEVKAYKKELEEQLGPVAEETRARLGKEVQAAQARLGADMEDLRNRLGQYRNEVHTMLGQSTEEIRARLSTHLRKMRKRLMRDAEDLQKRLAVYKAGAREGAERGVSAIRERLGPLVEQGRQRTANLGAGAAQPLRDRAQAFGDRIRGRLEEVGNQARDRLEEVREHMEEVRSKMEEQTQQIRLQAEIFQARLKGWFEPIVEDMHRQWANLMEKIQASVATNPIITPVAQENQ
# Apolipoprotein E3 [5] = target: T1, Apolipoprotein E3; assay: pH affinity ELISA, coated hApoE3
# Apolipoprotein E4 [6] = target: T2, Apolipoprotein E4; assay: pH affinity ELISA, coated hApoE4
# mouse ApoE [7] = target: T3, mouse ApoE; assay: pH affinity ELISA, coated mouse ApoE
# Apolipoprotein E4 [8] = target: T2, Apolipoprotein E4; assay: pH affinity ELISA, coated hApoE4, pH 7.4
# mouse ApoE [9] = target: T3, mouse ApoE; assay: pH affinity ELISA, coated mouse ApoE, pH 6.0
# T1 sequence (P02649 19-317 limits assumed): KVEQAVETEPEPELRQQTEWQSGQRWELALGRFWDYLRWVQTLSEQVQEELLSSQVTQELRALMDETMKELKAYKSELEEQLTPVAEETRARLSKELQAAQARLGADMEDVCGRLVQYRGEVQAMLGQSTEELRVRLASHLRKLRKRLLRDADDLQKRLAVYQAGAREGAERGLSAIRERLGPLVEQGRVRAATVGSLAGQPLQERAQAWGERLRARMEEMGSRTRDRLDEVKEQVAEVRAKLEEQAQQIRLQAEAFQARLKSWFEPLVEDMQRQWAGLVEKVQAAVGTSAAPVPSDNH
# T2 sequence (P02649 19-317 C130R limits assumed): as the sequence (P02649 19-317 limits assumed) above, with C112R counted along it
Binder,EC50 (Apolipoprotein E3 [1]),EC50 (Apolipoprotein E3 [2]),EC50 (Apolipoprotein E4 [3]),EC50 (mouse ApoE [4]),Ratio pH 7.4/6.0 (EC50) (Apolipoprotein E3 [5]),Ratio pH 7.4/6.0 (EC50) (Apolipoprotein E4 [6]),Ratio pH 7.4/6.0 (EC50) (mouse ApoE [7]),EC50 (Apolipoprotein E4 [8]),EC50 (mouse ApoE [9])
B1,0.136 µg/mL,0.0991 µg/mL,0.0797 µg/mL,0.089 µg/mL,0.73 ratio,0.46 ratio,0.96 ratio,0.0368 µg/mL,0.0926 µg/mL
B2,–,–,0.685 µg/mL,0.389 µg/mL,–,3.01 ratio,3.71 ratio,2.06 µg/mL,0.105 µg/mL
B3,–,–,2.93 µg/mL,1.58 µg/mL,–,2350 ratio,2.75 ratio,6890 µg/mL,0.573 µg/mL
B4,3.13 µg/mL,9.25 µg/mL,4.2 µg/mL,2.45 µg/mL,2.95 ratio,18400 ratio,2.25 ratio,68700 µg/mL,1.09 µg/mL
B5,–,–,0.084 µg/mL,–,–,1.79 ratio,–,0.15 µg/mL,–
B6,–,–,1.54 µg/mL,0.39 µg/mL,–,3.07 ratio,3.76 ratio,4.75 µg/mL,0.104 µg/mL
B7,–,–,4.36 µg/mL,0.413 µg/mL,–,4.33 ratio,2.53 ratio,18.9 µg/mL,0.163 µg/mL
B8,0.245 µg/mL,0.311 µg/mL,0.0893 µg/mL,0.244 µg/mL,1.27 ratio,1.65 ratio,1.67 ratio,0.147 µg/mL,0.146 µg/mL
